Where two headings read alike, the source gives them in different places.
Tests used:
bovine serum albumin [1] = biological target: T1, bovine serum albumin (bovine, UniProt P02769 25-607); test: ELISA, crude Fab supernatant, detected with 9E10
T1 construct: also called BSA

[2] = biological target: T2, ErbB2 extracellular domain (UniProt P04626 23-652, limits assumed); test: ELISA, crude Fab supernatant, detected with 9E10
T2 construct: extracellular domain

CEA = biological target: T3, CEA (UniProt P06731 35-685); test: ELISA, crude Fab supernatant, detected with 9E10
T3 sequence (looked up): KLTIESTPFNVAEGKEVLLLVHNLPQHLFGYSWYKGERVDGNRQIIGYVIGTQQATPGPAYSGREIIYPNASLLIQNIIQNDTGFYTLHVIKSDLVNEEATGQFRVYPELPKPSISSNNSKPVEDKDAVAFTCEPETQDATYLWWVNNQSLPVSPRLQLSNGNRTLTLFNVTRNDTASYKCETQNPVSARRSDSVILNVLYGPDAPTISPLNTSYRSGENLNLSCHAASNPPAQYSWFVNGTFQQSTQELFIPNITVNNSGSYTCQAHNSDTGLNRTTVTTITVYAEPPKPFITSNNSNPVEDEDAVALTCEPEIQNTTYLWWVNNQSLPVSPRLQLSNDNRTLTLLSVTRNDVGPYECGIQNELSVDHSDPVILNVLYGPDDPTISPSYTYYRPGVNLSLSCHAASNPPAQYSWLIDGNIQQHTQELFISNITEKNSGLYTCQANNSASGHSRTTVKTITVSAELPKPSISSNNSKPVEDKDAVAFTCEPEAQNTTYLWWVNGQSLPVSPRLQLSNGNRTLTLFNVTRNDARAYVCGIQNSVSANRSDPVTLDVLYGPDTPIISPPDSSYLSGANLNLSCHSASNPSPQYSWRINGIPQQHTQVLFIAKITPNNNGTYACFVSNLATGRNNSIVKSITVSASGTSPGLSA

[3] = biological target: T4, p53 central domain (residues 95-298) (UniProt P04637 95-298); test: immunoblot of purified central domain, Fab bacterial supernatant
T4 construct: range 95-298; Carries the vector's tag (purified as whole p53 on Ni2+ resin); also called central domain of p53
T4 sequence (P04637 95-298 limits assumed): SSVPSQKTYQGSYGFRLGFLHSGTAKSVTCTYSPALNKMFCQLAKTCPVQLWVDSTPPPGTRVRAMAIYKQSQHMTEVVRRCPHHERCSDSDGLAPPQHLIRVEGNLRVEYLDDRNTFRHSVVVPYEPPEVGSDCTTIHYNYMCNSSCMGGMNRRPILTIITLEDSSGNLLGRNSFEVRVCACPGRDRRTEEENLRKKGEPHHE

[4] = biological target: T5, recombinant p53 (wild type, whole protein) (UniProt P04637 1-393, limits assumed); test: SPR (BIAcore), p53 amine-coupled to a CM5 chip, Fab 10-200 nM injected, global fit, 1:1 model with drifting baseline
T5 construct: mature; Also tested unpurified in bacterial lysates; also called whole p53; full length p53
T5 sequence (P04637 whole entry): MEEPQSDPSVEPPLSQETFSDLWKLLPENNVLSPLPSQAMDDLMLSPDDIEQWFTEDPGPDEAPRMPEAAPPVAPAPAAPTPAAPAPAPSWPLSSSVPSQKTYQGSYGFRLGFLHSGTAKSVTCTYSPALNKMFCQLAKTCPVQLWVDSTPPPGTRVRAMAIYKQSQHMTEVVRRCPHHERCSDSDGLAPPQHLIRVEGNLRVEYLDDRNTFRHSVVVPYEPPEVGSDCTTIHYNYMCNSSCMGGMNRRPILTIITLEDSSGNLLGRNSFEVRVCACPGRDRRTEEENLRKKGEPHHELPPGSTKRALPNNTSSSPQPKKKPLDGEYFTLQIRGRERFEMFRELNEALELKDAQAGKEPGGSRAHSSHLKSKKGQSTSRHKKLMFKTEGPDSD

[5] = biological target: T6, p53 deletion construct 18 (residues 44-393) (human, UniProt P04637 44-393); test: immunoblot of E. coli lysates, Fab detected with 9E10 and HRP goat anti-mouse
T6 construct: In E. coli lysate on an immunoblot; also called the 18 construct
T6 sequence (P04637 44-393 limits assumed, stated change not applied): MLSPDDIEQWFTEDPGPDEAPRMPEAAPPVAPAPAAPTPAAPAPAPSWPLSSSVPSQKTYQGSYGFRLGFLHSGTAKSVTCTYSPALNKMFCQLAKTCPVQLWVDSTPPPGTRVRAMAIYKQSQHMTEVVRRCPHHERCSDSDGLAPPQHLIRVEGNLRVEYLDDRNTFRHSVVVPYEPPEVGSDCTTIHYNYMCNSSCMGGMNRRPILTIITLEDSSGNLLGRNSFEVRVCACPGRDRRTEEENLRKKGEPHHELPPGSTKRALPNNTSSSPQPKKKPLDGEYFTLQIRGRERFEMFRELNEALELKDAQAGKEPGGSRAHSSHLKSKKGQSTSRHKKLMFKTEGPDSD

[6] = biological target: T5, recombinant p53 (wild type, whole …)
bovine serum albumin [7] = biological target: T1, bovine serum albumin; test: cross reactivity ELISA, Fab detected with 9E10 and AP goat anti-mouse
[8] = biological target: T5, recombinant p53 (wild type, whole …); test: ELISA, soluble Fab, detected with 9E10 and AP goat anti-mouse
[9] = biological target: T4, p53 central domain (residues 95-298); test: as above
[10] = biological target: T7, p53 carboxy terminal domain (residues 283-393) (UniProt P04637 283-393); test: ELISA, detected with HRP goat anti-human
T7 construct: Carries the vector's tag; also called C-terminal domain; carboxy terminal domain of the p53
T7 sequence (P04637 283-393 limits assumed): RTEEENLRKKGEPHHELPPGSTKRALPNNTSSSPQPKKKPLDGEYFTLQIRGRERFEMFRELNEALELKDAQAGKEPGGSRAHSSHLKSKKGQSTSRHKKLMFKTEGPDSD

[11] = biological target: T4, p53 central domain (residues 95-298); test: ELISA, detected with HRP goat anti-human
hen egg white lysozyme = hen egg white lysozyme (hen, UniProt P00698 19-147); test: cross reactivity ELISA, purified antibody, HRP goat anti-human
Sequence of hen egg white lysozyme (P00698 19-147): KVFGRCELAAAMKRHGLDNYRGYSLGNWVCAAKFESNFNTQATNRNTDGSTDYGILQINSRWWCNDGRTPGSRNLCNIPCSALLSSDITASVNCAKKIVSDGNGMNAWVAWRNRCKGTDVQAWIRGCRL

bovine serum albumin [12] = biological target: T1, bovine serum albumin; test: as above

T1 sequence (P02769 25-607 limits assumed): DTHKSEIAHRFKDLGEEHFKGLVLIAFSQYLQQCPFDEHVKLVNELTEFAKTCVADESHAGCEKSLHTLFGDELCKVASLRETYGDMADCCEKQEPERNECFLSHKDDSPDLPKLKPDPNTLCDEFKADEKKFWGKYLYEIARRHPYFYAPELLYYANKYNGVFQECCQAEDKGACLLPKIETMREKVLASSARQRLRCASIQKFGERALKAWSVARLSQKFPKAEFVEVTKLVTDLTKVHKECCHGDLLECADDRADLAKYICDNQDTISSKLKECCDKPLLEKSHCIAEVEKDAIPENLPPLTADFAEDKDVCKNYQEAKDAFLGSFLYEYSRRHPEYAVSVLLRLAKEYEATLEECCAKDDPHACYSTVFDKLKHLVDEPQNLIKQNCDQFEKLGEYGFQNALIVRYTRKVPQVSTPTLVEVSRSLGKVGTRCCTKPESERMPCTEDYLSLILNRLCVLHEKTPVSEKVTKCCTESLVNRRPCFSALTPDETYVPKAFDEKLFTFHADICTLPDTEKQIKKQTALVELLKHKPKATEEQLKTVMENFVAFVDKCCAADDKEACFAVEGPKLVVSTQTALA

B1: Fab clone 163.1 (Fab, V domains shown)
VH: VQLLEQSGAEMKRPGASVTISCQASRQTFSGQYIHWVRQAPGQGLEWMGVINPSGGSANYAPSFQGRLSMSRDASTNTVYMKLSSLTSEDTAVYYCLSQALKYWGQGTLVAVSS
VL: AAELTQSPDSLAVSLGERATINCKSNQSVLYNSNSKNYLAWYQQKPGQPPKLLIYWASTRESGVPDRFSGSGSGTDFTLTITSLQAEDVAVYYCQQYFSSPYTFGQGTKLEIK
notes: myc tag on the C terminus of the heavy chain
binding result (bovine serum albumin [1]): no binding (tested: antigen coated at 1 µg/ml)
binding result [2]: no binding (tested: antigen coated at 5 µg/ml)
binding result (CEA): no binding (tested: antigen coated at 5 µg/ml)
binding result [3]: no binding
Kd [4]: 11.9 nM
binding result [5]: no binding

B2: Fab clone 163.5 (Fab, V domains shown)
VH: VQLLEQSGAEVKRPGASVTISCQASRQDFSGQYIHWVRQAPGQGFEWMGIINPSGGSANYAPKFKGRLTMSRDSSTDTVYMTLTSLTSEDTAVYYCLLQALKHWGQGTLVAVSS
VL: AAELTQSPDSLAVALGERATINCKSSQSVLYSLNNKNYLAWYQQKPGQPPKLLIHWASTRESGVPDRFSGSGSETDFTLTISSLQAEDVAVYYCQQYYTTPYTFGQGTKLEIK
binding result (bovine serum albumin [1]): no binding (tested: antigen coated at 1 µg/ml)
binding result [2]: no binding (tested: antigen coated at 5 µg/ml)
binding result (CEA): no binding (tested: antigen coated at 5 µg/ml)
Kd [6]: 15 nM
binding result [5]: no binding

B3: Fab clone 163.17 (Fab, V domains shown)
VH: VQLLEQSGAEVKRPGASVTISCRASRQDFSGQYIHWVRQAPGQGFEWMGIINPSGGSANYAPKFKGRLTMSRDSSTETVYMTLTSLTSEDTAVYYCLLQALKHWGQGTLVGPSS
VL: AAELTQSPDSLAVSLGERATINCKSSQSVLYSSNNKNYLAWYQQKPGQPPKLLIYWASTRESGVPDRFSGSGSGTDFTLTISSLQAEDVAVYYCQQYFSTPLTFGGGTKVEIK
notes: Human IgG1 kappa Fab (MCO1 vector, soluble from E. coli HB2151), myc tag on the C terminus of the heavy chain
binding result (bovine serum albumin [1]): no binding (tested: antigen coated at 1 µg/ml)
binding result [2]: no binding (tested: antigen coated at 5 µg/ml)
binding result (CEA): no binding (tested: antigen coated at 5 µg/ml)
Kd [4]: 15.7 nM
binding result [5]: no binding

B4: Fab clone 163.24 (Fab, V domains shown)
VH: VQLLEQSGAEVKRPGASVTISCQASRQNFSGQYIHWVRQAPGQGLEWMGIINPSGGSANYAPRFKGRLSMSRDSSTDTAYLTLTSLTSEDTAVYFCLLQSLKHWGQGTLVAVSS
VL: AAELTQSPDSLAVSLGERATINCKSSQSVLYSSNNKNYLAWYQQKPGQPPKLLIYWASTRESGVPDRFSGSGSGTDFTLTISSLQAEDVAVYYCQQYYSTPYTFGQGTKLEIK
notes: as for B3
binding result (bovine serum albumin [1]): no binding (tested: antigen coated at 1 µg/ml)
binding result [2]: no binding (tested: antigen coated at 5 µg/ml)
binding result (CEA): no binding (tested: antigen coated at 5 µg/ml)
Kd [4]: 13.8 nM
binding result [5]: no binding

B5: Fab clone 1159.8 (Fab, V domains shown)
VH: VQLLESGGGLIQPGRSLRLSCTASGFPFGDSAMTWFRQAPGKGLEWVGFIRSKAYGAATAYAASMKGRVTISRDDAKSIAYLHMSRLKIEDTAVYFCSRVKAGGPDYWGQGTLVTVSS
VL: AAELTQSPLSLPVIPGEPASISCRSSQSLLHRNGYNYLDWYLQKPGQSPQLLIYLGSTRASGVPDRFSGSGSGTDFTLNIRRVEAEDVGVYYCMQGLQTPYTFGEGTKVEIK
notes: Soluble Fab selected by panning on the p53 central domain; detected through the myc tag (9E10)
binding result (bovine serum albumin [7]): no binding (tested: antigen coated at 1 µg/ml)
binding result [8]: binds
binding result [9]: binds

B6: whole anti-p53 antibody from CHO clone C4B4 (antibody, V domains shown)
VH: VQLLEQSGAEVKRPGASVTISCQASRQDFSGQYIHWVRQAPGQGFEWMGIINPSGGSANYAPKFKGRLTMSRDSSTDTVYMTLTSLTSEDTAVYYCLLQALKHWGQGTLVAVSS
VL: AAELTQSPDSLAVALGERATINCKSSQSVLYSLNNKNYLAWYQQKPGQPPKLLIHWASTRESGVPDRFSGSGSETDFTLTISSLQAEDVAVYYCQQYYTTPYTFGQGTKLEIK
notes: also called C4B4G4
binding result [10]: no binding (tested: antigen coated at 2 µg/ml)
binding result [11]: no binding (tested: antigen coated at 2 µg/ml)
binding result (hen egg white lysozyme): no binding (tested: antigen coated at 10 µg/ml)
binding result (bovine serum albumin [12]): no binding (tested: antigen coated at 20 µg/ml)
